{"source": "paper PMC13544220", "about": "“Glycemic and bodyweight effects of GIPR coding variation reflect differences in surface expression and intrinsic functional impairment” (Science Advances, 2026)", "molecules": {"B1": {"name": "I378M (protein, UniProt P48546 22-466, looked up, variant I378M)", "Gastric inhibitory …": "RAETGSKGQTAGELYQRWERYRRECQETLAAAEPPSGLACNGSFDMYVCWDYAAPNATARASCPWYLPWHHHVAAGFVLRQCGSDGQWGLWRDHTQCENPEKNEAFLDQRLILERLQVMYTVGYSLSLATLLLALLILSLFRRLHCTRNYIHINLFTSFMLRAAAILSRDRLLPRPGPYLGDQALALWNQALAACRTAQIVTQYCVGANYTWLLVEGVYLHSLLVLVGGSEEGHFRYYLLLGWGAPALFVIPWVIVRYLYENTQCWERNEVKAIWWIIRTPILMTILINFLIFIRILGILLSKLRTRQMRCRDYRLRLARSTLTLVPLLGVHEVVFAPVTEEQARGALRFAKLGFEMFLSSFQGFLVSVLYCFINKEVQSEIRRGWHHCRLRRSLGEEQRQLPERAFRALPSGSGPGEVPTSRGLSSGTLPGPGNEASRELESYC"}}, "assay_type_in_all_cases": "cell-based, human", "key": {"[1]": {"system": "wild-type and variant SNAP-GIPR", "assay": "Surface SNAP-GIPR expression (SNAP-tag labelling) in AD293 cells;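 as to all read-outs here: scaled to the experimental average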", "conditions": "for AD293 Surface: Fig S3E, mean; for Surface SNAP-GIPR expression: sheet Fig 1C", "procedure": "(§1) Twenty-four hours before the experiment, AD293 or INS-1 cells were reverse transfected with GIPR variant or wild-type plasmids using Lipofectamine 2000 in 96-well, clear-bottom, black microplates precoated with poly-D-lysine. All variants were tested in parallel on each occasion to control for transfection efficiency differences between experiments. Cells were then labeled using the cell-impermeant probe SNAP-Surface Alexa Fluor 647 (500 nM, New England Biolabs, USA) for 10 min at room temperature to label only surface GIPR. […] Several fields of view (FOVs) were acquired within each well using a 20X, 0.75–numerical aperture (NA) air objective. Surface GIPR fluorescence was quantified after flat-field correction using BaSiC ([72]) and segmenting using Phantast ([73]), which generates a mask based on the phase contrast images to demarcate cell versus noncell. Wide-field imaging of the surface-specific labeling achieved by SNAP-Surface probes means that surface expression can be established from whole-cell fluorescence, after subtracting nonspecific fluorescence from a separate well containing nontransfected cells processed in parallel from the same experiment. Data were normalized by dividing by the average specific signal across each experiment, or by the wild-type value, as indicated in the figure legends."}, "[2]": {"system": "wild-type and variant SNAP-GIPR", "assay": "Constitutive and agonist-mediated internalization, reversible SNAP-tag labelling, AD293 cells", "design": "key to Internalisation, Vehicle / Internalisation, +GIP / Internalisation, GIP-only: % internalization: residual fluorescence after Mesna vs pre-Mesna; Surface expression: unit not given here", "conditions": "Mean", "procedure": "(§2) Twenty-four hours before the experiment, AD293 or INS-1 cells were reverse transfected with GIPR variant or wild-type plasmids using Lipofectamine 2000 in 96-well, clear-bottom, black microplates precoated with poly-D-lysine. All variants were tested in parallel on each occasion to control for transfection efficiency differences between experiments. […] Media were then removed, cells washed with PBS and then placed in TNE buffer (pH 8.6) for imaging. […] After 10 min, the well was reimaged again to detect remaining fluorescence from internalized GIPR. Images were analyzed as in the “Assessment of surface GIPR expression by SNAP-tag labeling in cell lines” section, with the residual specific fluorescence after Mesna treatment expressed relative to the pre-Mesna value to establish percentage internalization."}, "[3]": {"system": "wild-type and variant SNAP-GIPR", "assay": "Single-concentration GIP cAMP response by HTRF in AD293 cells", "conditions": "Fig S3F, HTRF, mean", "procedure": "(§3) All variants were tested in parallel on each occasion to control for transfection efficiency differences between experiments."}, "[4]": {"system": "wild-type and variant SNAP-GIPR", "assay": "Constitutive and agonist-mediated internalization, reversible SNAP-tag labelling, INS-1 cells", "design": "key to Internalisation, GIP-only / Internalisation, Vehicle / Internalisation, +GIP: % internalization: residual fluorescence after Mesna vs pre-Mesna", "conditions": "Mean", "procedure": "as §2"}, "[5]": {"system": "wild-type and variant SNAP-GIPR", "assay": "Surface SNAP-GIPR expression (SNAP-tag labelling) in INS-1 cells", "conditions": "Fig 4G; Mean", "procedure": "as §1"}, "[6]": {"system": "wild-type and variant SNAP-GIPR", "assay": "Single-concentration GIP cAMP response by HTRF in INS-1 cells", "conditions": "Fig S3E, mean", "procedure": "as §3"}, "[7]": {"system": "wild-type and variant SNAP-GIPR", "assay": "cADDis cAMP imaging in AD293 cells, ensemble, expression-matched and per decile", "conditions": "Fig S3F, cADDis, mean", "procedure": "AD293 cells were reverse transfected with the GIPR variant or wild-type plasmids using Lipofectamine 2000 and cotransduced with the cADDis Green Up BacMam (10 μl per well, Montana Molecular, USA), in 96-well, poly-D-lysine–coated microplates. All variants were tested in parallel on each occasion to control for transfection efficiency differences between experiments. After 24 hours, cells were labeled using 500 nM SNAP-Surface Alexa Fluor 647 for 10 min at room temperature. Cells were washed three times and then imaged in KRBH buffer containing 6 mM glucose and 0.1% BSA. Imaging was performed at 37°C by wide-field microscopy using the same microscope as in the “Assessment of surface GIPR expression by SNAP-tag labeling in cell lines” section, with 9 FOVs for both cADDis and SNAP-Surface fluorescence acquired from each well using a 10X, 0.45 NA air objective. […] Flat-field correction was performed using BaSiC ([72]), drift correction was performed using SIFT, and a maximum intensity projection of the cADDis channel was used to segment individual cells. cAMP responses were determined by quantifying the cADDis fluorescence intensity for each cell at each time point. Nonviable cells or noncell objects were excluded according to criteria for allowable cell IBMX/FSK responses. […] The cADDis mask was then used to quantify the SNAP-Surface signal from each cell. Wild-type SNAP-Surface readings were split into deciles, and these deciles were subsequently used to categorize variant-transfected cells to match against the wild type. After trimming the top and bottom deciles, the mean was taken of each decile mean for surface expression level or cAMP response, which achieved matched expression levels by effectively applying an inverse weighting to counteract differences in cell number in each decile for different variants. Ensemble expression levels or cAMP responses were calculated without regard to deciles. Variant cADDis responses were also analyzed within their own surface expression deciles."}}, "data": [{"molecule": "B1", "values": [{"measurement": "AD293 Surface", "setting": "[1]; column repeated, paired with cAMP 100 nM", "value": 1.77}, {"measurement": "AD293 Surface", "setting": "[1]; paired with cAMP 100 pM", "value": 1.77}, {"measurement": "Surface SNAP-GIPR expression", "setting": "[1]; replicate 1", "value": 1.773}, {"measurement": "Surface SNAP-GIPR expression", "setting": "[1]; replicate 2", "value": 1.115}, {"measurement": "Surface SNAP-GIPR expression", "setting": "[1]; replicate 3", "value": 0.7558}, {"measurement": "Surface SNAP-GIPR expression", "setting": "[1]; replicate 4", "value": 2.264}, {"measurement": "Surface SNAP-GIPR expression", "setting": "[1]; replicate 5", "value": 2.029}, {"measurement": "Surface SNAP-GIPR expression", "setting": "[1]; replicate 6", "value": 1.522}, {"measurement": "Surface SNAP-GIPR expression", "setting": "[1]; replicate 7", "value": 1.263}, {"measurement": "Surface SNAP-GIPR expression", "setting": "[1]; replicate 8", "value": 1.045}, {"measurement": "Surface SNAP-GIPR expression", "setting": "[1]; replicate 9", "value": 1.7}, {"measurement": "Surface SNAP-GIPR expression", "setting": "[1]; replicate 10", "value": 1.857}, {"measurement": "Surface SNAP-GIPR expression", "setting": "[1]; replicate 11", "value": 1.523}, {"measurement": "Surface SNAP-GIPR expression", "setting": "[1]; replicate 12", "value": 1.59}, {"measurement": "Surface SNAP-GIPR expression", "setting": "[1]; replicate 13", "value": 1.942}, {"measurement": "Surface SNAP-GIPR expression", "setting": "[1]; replicate 14", "value": 2.071}, {"measurement": "Surface SNAP-GIPR expression", "setting": "[1]; replicate 15", "value": 1.739}, {"measurement": "Surface SNAP-GIPR expression", "setting": "[1]; replicate 16", "value": 1.656}, {"measurement": "Surface SNAP-GIPR expression", "setting": "[1]; replicate 17", "value": 1.757}, {"measurement": "Surface SNAP-GIPR expression", "setting": "[1]; replicate 18", "value": 2.038}, {"measurement": "Surface SNAP-GIPR expression", "setting": "[1]; replicate 19", "value": 1.806}, {"measurement": "Surface SNAP-GIPR expression", "setting": "[1]; replicate 20", "value": 1.652}, {"measurement": "Surface SNAP-GIPR expression", "setting": "[1]; replicate 21", "value": 1.678}, {"measurement": "Surface SNAP-GIPR expression", "setting": "[1]; replicate 22", "value": 1.86}, {"measurement": "Surface SNAP-GIPR expression", "setting": "[1]; replicate 23", "value": 1.91}, {"measurement": "Surface SNAP-GIPR expression", "setting": "[1]; replicate 24", "value": 1.99}, {"measurement": "Surface SNAP-GIPR expression", "setting": "[1]; replicate 25", "value": 1.721}, {"measurement": "Surface SNAP-GIPR expression", "setting": "[1]; replicate 26", "value": 1.677}, {"measurement": "Surface SNAP-GIPR expression", "setting": "[1]; replicate 27", "value": 2.102}, {"measurement": "Surface SNAP-GIPR expression", "setting": "[1]; replicate 28", "value": 2.164}, {"measurement": "Surface SNAP-GIPR expression", "setting": "[1]; replicate 29", "value": 2.007}, {"measurement": "Surface SNAP-GIPR expression", "setting": "[1]; replicate 30", "value": 1.865}, {"measurement": "Surface SNAP-GIPR expression", "setting": "[1]; replicate 31", "value": 1.878}, {"measurement": "Surface SNAP-GIPR expression", "setting": "[1]; replicate 32", "value": 1.784}, {"measurement": "Surface SNAP-GIPR expression", "setting": "[1]; replicate 33", "value": 1.822}, {"measurement": "Surface SNAP-GIPR expression", "setting": "[1]; replicate 34", "value": 1.937}, {"measurement": "Surface SNAP-GIPR expression", "setting": "[1]; replicate 35", "value": 1.581}, {"measurement": "Surface SNAP-GIPR expression", "setting": "[1]; replicate 36", "value": 1.504}, {"measurement": "Surface SNAP-GIPR expression", "setting": "[1]; replicate 37", "value": 2.229}, {"measurement": "Surface SNAP-GIPR expression", "setting": "[1]; replicate 38", "value": 1.734}, {"measurement": "Surface SNAP-GIPR expression", "setting": "[1]; replicate 39", "value": 2.181}, {"measurement": "Surface SNAP-GIPR expression", "setting": "[1]; replicate 40", "value": 1.889}, {"measurement": "Surface SNAP-GIPR expression", "setting": "[1]; replicate 41", "value": 1.94}, {"measurement": "+GIP internalisation (100 nM)", "setting": "[2]; Fig 4E, GIP 100 nM", "value": 1.013}, {"measurement": "GIP-specific internalisation (100 nM)", "setting": "[2]; Fig 4E, GIP 100 nM", "value": 0.2773}, {"measurement": "Constitutive internalisation (100 nM)", "setting": "[2]; Fig 4E", "value": 0.7358}, {"measurement": "Surface expression", "setting": "[2]; Fig 4E", "value": 1.854}, {"measurement": "Internalisation, +GIP", "setting": "[2]; Fig S4C, AD293", "value": 54.7212}, {"measurement": "Internalisation, GIP-only", "setting": "[2]; Fig S4C, AD293", "value": 14.9417}, {"measurement": "Internalisation, Vehicle", "setting": "[2]; Fig S4C, AD293", "value": 39.7795}, {"measurement": "AD293 100 pM HTRF", "setting": "[3]; AD293, 100 pM", "value": 1.235}, {"measurement": "AD293 100 nM HTRF", "setting": "[3]; AD293, 100 nM", "value": 1.479}, {"measurement": "+GIP internalisation (100 nM)", "setting": "[4]; Fig 4G, GIP 100 nM", "value": 0.6937}, {"measurement": "GIP-specific internalisation (100 nM)", "setting": "[4]; Fig 4G, GIP 100 nM", "value": 0.1611}, {"measurement": "Constitutive internalisation (100 nM)", "setting": "[4]; Fig 4G", "value": 0.5325}, {"measurement": "Internalisation, +GIP", "setting": "[4]; Fig S4C, INS-1", "value": 45.8367}, {"measurement": "Internalisation, GIP-only", "setting": "[4]; Fig S4C, INS-1", "value": 10.74}, {"measurement": "Internalisation, Vehicle", "setting": "[4]; Fig S4C, INS-1", "value": 35.0967}, {"measurement": "Surface expression", "setting": "[5]", "value": 1.534}, {"measurement": "INS-1 cAMP (100 nM)", "setting": "[6]", "value": 1.242}, {"measurement": "AD293 100 pM cADDis", "setting": "[7]; AD293, 100 pM", "value": 37.0191}, {"measurement": "AD293 100 nM cADDis", "setting": "[7]; AD293, 100 nM", "value": 39.23}]}]}
